Data as given in patent US20210395718A1, “NOVEL KETOSE 3-EPIMERASE” (NATIONAL UNIVERSITY CORPORATION KAGAWA UNIVERSITY, priority 2018, published 2021).

Columns and labels:
Format in all cases: biochemical
[1] = Ketose 3-epimerase activity of crude enzyme (D-allulose to D-fructose, HPLC); conditions: crude recombinant enzyme
Description: The activity of an enzyme ketose 3-epimerase before purification was obtained by measuring the preparation amount of D-fructose with D-allulose as a substrate. More specifically, an enzymatic reaction solution composed of a 50 mM tris-HCl buffer (pH 7.5), 0.1 M D-allulose, an enzyme solution, and 2 mM magnesium chloride is reacted at 70° C. for 10 minutes. The reaction mixture is boiled for 2 minutes to terminate the reaction and the solution composition after the reaction is measured by HPLC. One unit of enzyme activity is defined as an enzyme amount that epimerizes D-allulose to prepare 1 μmol of D-fructose per minute under the above-described conditions. An enzyme unit for epimerization of D-fructose into D-allulose, which is a reverse reaction, is also measured under similar conditions and defined similarly.
For the measurement of the activity of a ketose 3-epimerase as a crude enzyme and a purified enzyme, an enzyme reaction was made by performing an experiment similar to Experiment 4. An enzyme reaction was made for 10 minutes under various conditions and an enzyme amount preparing 1 μmol of D-fructose from D-allulose per minute was defined as 1 unit. After the reaction, the reaction mixture was put in a boiling liquid for 3 minutes to terminate the reaction. After deionization treatment, the D-fructose thus prepared was measured by HPLC analysis. […]

[2] = Optimum reaction temperature / relative activity at various reaction temperatures; conditions: crude recombinant enzyme
Description: For the measurement of the activity of a ketose 3-epimerase as a crude enzyme and a purified enzyme, an enzyme reaction was made by performing an experiment similar to Experiment 4. An enzyme reaction was made for 10 minutes under various conditions and an enzyme amount preparing 1 μmol of D-fructose from D-allulose per minute was defined as 1 unit. After the reaction, the reaction mixture was put in a boiling liquid for 3 minutes to terminate the reaction. After deionization treatment, the D-fructose thus prepared was measured by HPLC analysis.
Reaction conditions are shown in Table 1 under which the reaction was made at various temperatures within from 50 to 80° C. to find an optimum temperature.

[3] = Thermal stability: residual activity after incubation at 60° C. for one hour; conditions: crude recombinant enzyme; activity at 60° C. (10 min reaction) = 100; unit not given
How it was run: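 Crude recombinant enzyme held 1 h at 60 °C in 50 mM tris-HCl pH 7.5 with 2 mM MgCl2, chilled 10 min on ice, then residual activity measured by the standard method. Expressed relative to activity at 60 °C under the 10-min optimum-temperature reaction conditions, set as 100.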

[4] = Ketose 3-epimerase activity ratio (T70/T50) at reaction temperature of 70° C. to 50° C.; conditions: crude recombinant enzyme; ratio of activity at 70° C. to activity at 50° C., 10 min reaction
How it was run: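 Crude recombinant enzyme activity measured at 70° C. and at 50° C. in 10-minute reactions under the optimum-temperature assay conditions. Value is the ratio of the two activities (T70/T50).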

[5] = activity at optimum temperature = 100

B1: Mutant enzyme Sequence information 3: mutant having Sequence 3 (SEQ ID NO: 3), 78.5% amino acid sequence identity to Sequence 1 (protein)
chain: MNIGCHGLVWTGTFDADGIRLAVEKTKQAGFDLIEFPLMDPFSFDVAAAQAALAEHGLAVSASLGLSDETDITSSDPAVVAAGEALLLRAVDVLAELGGTHFCGVIYSAMKKYMDPVTPEGLASSRRTIARVADHAAERGVSVSLEVVNRYETNVLNTARQALAYLGEVDRPNLGIHLDTYHMNIEESDMFAPVLDAAPALRYVHIGESHRGYLGTGTVDFDTFFKALGRIGYDGPIVFESFSSAVVAPDLSRMLGIWRNLWTDNDELGAHANAYIRDKLVAVDSIRLH
Total activity per 100 mL of culture liquid (optimum reaction temperature) [1]: 1201 U | Optimum enzyme reaction temperature ([2]; 10 min, 2 mM magnesium chloride, pH 7.5): 70° ° C. | Relative activity at 60° C. (%) [2, 5]: 75.8% | Relative activity at 70° C. (%) [2, 5]: 100.0% | Relative activity at 80° C. (%) [2, 5]: 31.2% | Residual activity after incubation at 60° C. for 1 hour [3]: 38.2 | T70/T50 [4]: 2.11
